The results in this text go back to PMC4196048 (The Journal of Membrane Biology, 2014).

The series deals with the molecule itself. Nature of the series: negative-stain transmission electron microscopy.

B1: LPS-free OmpF refolded from inclusion bodies, reconstituted into Amphipol A8-35 (natural protein)
chain: MEIYNKDGNKVDLYGKAVGLHYFSKGNGENSYGGNGDMTYARLGFKGETQINSDLTGYGQWEYNFQGNNSEGADAQTGNKTRLAFAGLKYADVGSFDYGRNYGVVYDALGYTDMLPEFGGDTAYSDDFFVGRVGGVATYRNSNFFGLVDGLNFAVQYLGKNERDTARRSNGDGVGGSISYEYEGFGIVGAYGAADRTNLQEAQPLGNGKKAEQWATGLKYDANNIYLAANYGETRNATPITNKFTNTSGFANKTQDVLLVAQYQFDFGLRPSIAYTKSKAKDVEGIGDVDLVNYFEVGATYYFNKNMSTYVDYIINQIDSDNKLGVGSDDTVAVGIVYQF
Take B1: the binding result is “binds”.
